Experimental data reported in the RNAGym collection of RNA variant scans (doi:10.7554/elife.90254).

B1: LINE1-full (parent)
chain: UACGUAGGUGGUUUUCCCCUGAUAGUGCUAAGGGGGCCUGGAAGUUUGGACUGGGCAGAGCUCAACACAGCGUGGCAAAGUGGCUGUGGCUAGACUGCCUCUCUGGAUUCCUCGUCACUCAGCAGGGCAUCUCUGAGAGAAAUGCC

Variants of: B1
Assay: self-cleavage, relative activity (ratio to wild type); higher = more cleavage; in vitro, sequencing; the parent is a self-cleaving ribozyme

Variant | self-cleavage
G11A U26C | 1.4
U12G A78G | 0
U12G A129U | 1.49
U12C A50G | 1.15
U12C A50U | 1.54
U12G A64U | 0.83
U13A C28U | 0.76
U12A C16A | 0.97
G11A G126A | 1.2
U12G G34U | 2.48
U12G U130G | 0.77
U12G U130C | 1.43
U12C U115A | 0.87
U12C U115G | 2.63
U12C U143A | 1.25
U12A U115A | 1.58
U12A U115C | 1.21
G11A G105A | 1.27
U12G U104A | 1.76
G11U A129G | 0.83
U13A C99U | 0.46
U12C G83U | 1.07
G10A U119A | 0.93
G10A U119C | 1

Variant | self-cleavage
U12C A138U | 1.21
U12A A30U | 1.63
U12G G58A | 0.11
U13A C51A | 0.75
G11A C120U | 1.35
U12C G135U | 1.57
U12C U23A | 1.08
U12C U73G | 1.29
U12A A138U | 1.02
U12C U45C | 0.98
U12C U45A | 0.88
U12C U45G | 1.35
U13A G60C | 0
U12C A64G | 0.28
U12C A42C | 0.85
U12C A42G | 1.48
U12A U91C | 0.54
U12A U91A | 0.82
U12C G41U | 1.25
U12G A77U | 0.78
U12G A77C | 0.69
U12C G80A | 0.84
G11C A138G | 1.22
U12A A31U | 2

Variant | self-cleavage
U13A U104A | 0.94
U13A U104C | 1.51
U13A A31C | 1.52
U12A C18G | 1.01
U12G A138G | 1.29
U12C G144A | 1.08
U13A U112A | 0.45
U13A U112C | 0.9
U12G U15C | 0.9
U12C G106A | 1.68
U12C A65U | 0.21
G11C U109C | 2.63
U12G A121G | 1.4
U12G A121C | 1.29
U12C A124U | 1.29
U12G A31G | 0.87
U12A U100C | 1.64
U12G U14A | 0.44
U12A A59G | 0.27
U12A A59C | 0.61
G10U A138U | 1
U12C A59G | 0.15
U13A G54U | 0.51
G11A A50C | 1.24

Variant | self-cleavage
U13A C110A | 0.84
U12G U85G | 0.21
U12G U85A | 0.22
G11A A42G | 1.43
U13A A30G | 0.97
G11A U119C | 0.93
U12A G70A | 0.18
G11A U132C | 1.03
G11A A77G | 1.08
U12C A142G | 1.13
U12G G105U | 0.67
G10U G97A | 0.11
U13A U87A | 0.07
U13A U87C | 0.16
U12A U112C | 1.3
G11A A43G | 1.42
U12C A77U | 1.26
U12C A77G | 1.8
U12G A30U | 0.83
U12G A30G | 1.2
U12A U132C | 1.41
U12A A42U | 1.75
U12A A42G | 1.28
U12C G82C | 2.15

Variant | self-cleavage
U12C A31G | 1.24
U12G A136G | 1.72
U12G U23C | 1.32
U12C U130C | 1.4
G11A U29C | 1.25
U12G U143A | 0.59
U12G G89A | 0.14
U12G A22G | 1.04
U12A G53C | 1.12
U12G U47A | 0.95
U12G U96C | 0.27
U12G U45A | 1.3
U12C C56A | 0.01
U12C U96G | 0.28
U12A A141U | 0.64
G10U A78G | 1.09
U12C U85A | 0.06
U13A G55A | 0.21
U12G G36A | 0.22
U12A U85C | 0.2
U12C U87A | 0.06
U13A A78G | 0.84
U12C U46A | 1.24
U12C U46G | 0.82

Variant | self-cleavage
U13A U46C | 0.77
U12G G70A | 0.07
U12G U81A | 2.33
U12G U81G | 0.68
G11U | 1.56
G11C | 1.42
G11A | 1.31
U12G U119G | 0.8
U12C G49A | 1.28
U13A U47C | 0.59
U12C U15A | 0.7
U12C U15C | 1.05
U12G U108C | 1.52
U12G U108A | 0.77
U12A A117U | 1.36
U13A A94G | 0.19
U13A G126A | 1.08
G10C U96A | 0.22
U12G U91C | 1.02
G11A A138G | 1.93
G11A A94G | 0.08
U12C U39G | 0.84
U12C A22U | 1.68
G11A C84U | 0.15

Variant | self-cleavage
G10U A50U | 1.99
U12C U14C | 1.12
U12C C113U | 0.76
U12C C113A | 0.64
U12A U143A | 1.28
U12A U143C | 1.14
G11C U20A | 0.54
U12G U20A | 1.08
U13A G114A | 1.03
U12G A69G | 0.77
G11A G70U | 0.07
U12C U109A | 1.49
U12C U134C | 1.3
U12C U134G | 1.97
U12G C103A | 1.15
U13A G21U | 0.47
U13A C133A | 0.97
U13A C133U | 0.67
U12C A24C | 1.61
U12C A24U | 1.18
U12A C51A | 1.16
U12G A57U | 0.17
U12C C99G | 0.63
